# Key:
# [1] = biological target: major capsid protein VP1 of GII.4 norovirus Houston/TCH186/2002 (HOV), assembled as virus-like particle (human norovirus GII.4 (Houston/TCH186/2002, HOV)); assay: cryo-EM structure; GII.4 HOV VLPs (0.24 mg/ml) in PBS pH 6.0 on graphene oxide coated grids; single-particle reconstruction with icosahedral symmetry imposed (cryoSPARC); ~3.8 Å
# [2] = biological target: major capsid protein VP1 of GII.4 norovirus Houston/TCH186/2002 (HOV), assembled as virus-like particle (human norovirus GII.4 (Houston/TCH186/2002, HOV)); assay: crystal structure; GII.4 HOV VLP crystallised by hanging-drop vapor diffusion at room temperature; space group I222, 45 VP1 copies in the asymmetric unit, refined with NCS without imposing icosahedral symmetry; 3.0 Å
substance,measurement,setting,value
"major capsid protein VP1 of GII.4 norovirus Houston/TCH186/2002 (HOV), assembled as virus-like particle (natural protein)",stoichiometry N,[1],180
same,stoichiometry N,[2],180
